Experimental data as given in PMC3278457.

Tests used:
[1] = target: spinophilin (striatal) (UniProt Q6R891); assay: co-IP with spinophilin antibody, striatal extract; conditions: reference: wild-type mice; sites T286
[2] = target: spinophilin (GST fusion fragments) 1-300 (UniProt O35274); assay: GST pull-down from striatal extract; conditions: reference: wild-type mice; sites T286
[3] = target: spinophilin, endogenous in mouse striatal TSF (mouse (endogenous in striatum)) (UniProt Q6R891); assay: co-IP; spinophilin immunoprecipitated with 4 µg goat spinophilin antibody from mouse striatal TSFs (WT or T286A-KI; PND21 or adult); immunoblot

Chain of UniProt Q6R891 (Q6R891 whole entry, the tested form may be a part): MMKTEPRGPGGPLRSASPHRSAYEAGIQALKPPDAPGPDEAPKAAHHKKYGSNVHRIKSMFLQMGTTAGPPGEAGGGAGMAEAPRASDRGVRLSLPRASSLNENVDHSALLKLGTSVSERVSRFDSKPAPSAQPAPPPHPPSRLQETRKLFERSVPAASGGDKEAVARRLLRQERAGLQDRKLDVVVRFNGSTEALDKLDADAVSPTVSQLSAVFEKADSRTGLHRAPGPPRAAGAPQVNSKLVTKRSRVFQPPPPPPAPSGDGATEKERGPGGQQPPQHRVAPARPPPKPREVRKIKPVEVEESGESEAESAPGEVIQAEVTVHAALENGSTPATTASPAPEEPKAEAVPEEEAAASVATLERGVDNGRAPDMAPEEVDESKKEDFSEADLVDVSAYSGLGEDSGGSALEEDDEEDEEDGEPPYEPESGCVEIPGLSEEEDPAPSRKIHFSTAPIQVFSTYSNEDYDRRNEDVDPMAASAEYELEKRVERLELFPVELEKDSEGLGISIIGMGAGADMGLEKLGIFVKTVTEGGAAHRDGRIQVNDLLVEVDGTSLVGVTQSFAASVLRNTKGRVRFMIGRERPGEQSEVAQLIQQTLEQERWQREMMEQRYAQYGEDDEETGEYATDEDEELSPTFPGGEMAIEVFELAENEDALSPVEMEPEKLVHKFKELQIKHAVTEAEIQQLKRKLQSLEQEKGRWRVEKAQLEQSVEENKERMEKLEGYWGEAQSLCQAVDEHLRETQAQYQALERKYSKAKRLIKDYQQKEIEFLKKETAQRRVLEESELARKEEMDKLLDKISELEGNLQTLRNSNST

Substance | other: reduction relative to wild type [1] | binding against the reference [2] | reduction of CaMKIIα in spinophilin immune complexes, T286A-KI against WT [3]
CaMKIIα (from UniProt P11798) T286A knock-in mice | weaker | weaker | –
CaMKIIα T286A, endogenous in T286A-KI mouse striatum (from UniProt P11798 1-478) (enzyme) | – | – | 50%
